Results as given in the supplement of paper PMC10567573.

B1: TNXB (parent)
chain: LLQRELMVPGTRHSAVLRDLRSGT
B2: RHOBTB2 (parent)
chain: NQEITKAFHVRRTNRVKECLAKGT

Variants of: B1
Test: protein stability index of a GFP-peptide fusion (GPS, HEK-293T) (PSI 1-6); higher = more stable
Settings: c terminus: a fixed tail appended
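Further: lentivirally expressed fusions sorted by FACS into six bins by GFP to DsRed ratio, PSI derived from sequencing read proportions per bin multiplied by bin number.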

Protein stability index: each site, then its substitutions
L20: C 2.85, K 3.02, R 2.86, T 2.66, A 2.97, P 2.53, N 3.53, H 2.7, Q 2.89, Y 2.27, W 2.3, V 2.63, E 3.37, F 1.92, G 3.37, I 2.52, D 3.65, M 2.25, S 3.38
R21: C 2.06, I 2.13, Q 2.01, G 2.43, T 2.18, K 3.03, F 1.95, L 1.99, E 2.58, D 2.69, Y 2.12, H 3.21, M 1.99, A 2.73, S 2.06, W 2.75, N 2.34, V 1.88, P 2.85
D19: Y 2.23, E 2.78, R 1.69, K 2.07, A 2.27, F 2.18, C 1.49, I 1.71, M 2.39, G 2.31, H 2.26, S 2.31, T 2.46, N 2.06, V 1.71, W 1.73, L 1.75, Q 2.29, P 2.69
T24: C 1.77, L 2, N 2.37, R 2.88, A 2.7, Q 2.49, P 2.54, M 2.29, E 1.83, D 2.5, G 3.51, W 1.84, V 2.29, I 1.72, H 2.13, K 2.03, F 2.13, S 2.2, Y 2.64
S22: G 2.12, C 2, V 1.82, P 2.43, R 2.78, F 1.58, K 2.77, I 2.5, E 2.41, D 2.96, T 2.39, N 2.09, M 2.19, W 1.71, Q 3.04, L 2.04, Y 2.18, H 2.2, A 2.32
R18: T 2.43, I 2.21, M 2.12, P 2.75, N 2.71, E 3.33, G 2.44, L 1.94, F 2.02, V 2.51, Y 2.07, S 2.61, Q 2.48, H 2.86, W 1.8, D 2.83, K 2.39
G23: Q 3.73, S 2.94, M 2.22, W 2.09, I 2.35, H 2.31, R 2.72, Y 2.14, D 3.38, V 2.13, C 2.36, T 2.43, L 1.81, A 2.31, K 2.92, P 2.14, E 3.05, F 2.82, N 2.58

Variants of: B2
Test: as above
Settings: c terminus: a fixed tail appended

Protein stability index, by site and new letter:
Q2: C 3.16, P 3.4, V 3.5, I 2.6, D 4.2, N 3.42, F 3.01, E 4.05, W 2.69, M 3.01, K 3.78, H 3.53, R 2.83, L 2.4, T 3.74, G 2.39, Y 3.31, A 3.21
A7: V 1.02, L 2.85, C 2.94, D 3.82, N 3.2, Q 3.5, K 3.51, T 3.11, P 4.3, R 3.76, M 2.48, W 3.34, E 4.16, Y 2.29, H 2.52
E3: Q 2.22, F 2.04, C 2.31, H 2.47, P 3.38, M 2.87, S 2.26, R 3.02, V 2.4, W 3.8, D 2.63, L 3.66, Y 2.23, G 3.15, N 3.38, K 3.06, I 2.57
I4: W 3.21, A 4.92, D 4.37, S 4.49, H 4.13, G 4.42, N 3.38, P 4.43, T 5.01, F 3.46, E 4.32, L 3.51, M 4.25, R 3.72, K 3.75
R12: E 4.16, G 4.51, I 2.37, P 3.5, A 4.05, D 3.78, M 3.29, C 2.68, L 2.16, F 2.16, K 4.31, N 3.92, H 3.72
V10: Q 3.84, T 4.3, P 4.01, D 4.25, E 4.71, L 3.08, G 3.46, A 4.09, K 4.42, C 3.62, N 3.92, W 3.35, Y 3.78, R 3.91, F 3.39, I 3.25, H 4.46
H9: M 2.08, G 4.27, N 4.24, A 2.45, C 2.65, V 2.4, T 3.31, Y 3.2, F 2.55, W 2.5, R 2.87, E 4.58, I 3.08, S 2.98, D 4.12, L 2.77
T5: P 3.88, Q 4.06, F 2.67, N 3.22, W 3, D 3.84, Y 3.46, M 3.42, R 3.7, I 4.04, L 2.86, H 4.29, K 4.06, G 2.21, E 4.16, A 3.75, S 3.48, C 2.04, V 3.51
K6: P 4.09, Q 3.18, R 2.87, E 4.03, W 2.34, I 1.51, H 3.87, S 2.77, D 4, G 3.49, M 2.29, V 2.1, C 2.21, F 2.97, T 3.43, N 3.25, L 2.84, Y 2.25
F8: E 4.62, Y 3.37, P 4.53, D 4.67, I 4.37, M 4.77, H 4.73, G 4.63, A 4.6, W 2.94, C 4.96, Q 4.48, T 4.5, S 4.87, N 4.39, K 4.15, V 4.46, L 3.77, R 4.67
N1: T 1.57, L 2.31, V 3.07, I 1.59, G 2.88, P 4.54, C 2.25, E 4.01, M 2.66, A 4.01, W 2.45, Y 2.26, K 3.49, Q 3.87, S 3.94, F 2.07, H 2.86
R11: A 4.09, Y 2.94, E 4.25, W 2.61, I 2.43, P 4.36, C 3, Q 4.43, D 4.01, L 3.21, H 3.94, F 3.62, T 3.82, M 2.81, N 4.05, S 3.99, V 2.22, K 3.62, G 4.05
